Test results from FireProtDB (doi:10.1016/s0022-2836(02)00630-7).

B1: Phosphocarrier protein HPr, P08877 (parent)
chain: MAQKTFKVTADSGIHARPATVLVQTASKYDADVNLEYNGKTVNLKSIMGVMSLGIAKGAEITISASGADENDALNALEETMKSEGLGE

Variants of: B1
Conditions: Bacillus subtilis (strain 168), pH 7, CD, Potassium phosphate 10 mM, reversible: yes, structure 1KKM, whole UniProt chain shown; for ddG of mutation (higher = less stable) / denaturant m value / denaturant midpoint (higher = more stable): 25 °C

Variant	ddG of mutation (higher = less stable) (Thermal) [kcal/mol]	ddG of mutation (higher = less stable) (Urea) [kcal/mol]	denaturant m value (Urea) [kcal/mol/M]	denaturant midpoint (higher = more stable) (Urea) [M]	Tm (Thermal) [°C]	change of melting temperature, mutant - wild type (higher = more stable) (Thermal) [°C]	unfolding enthalpy (van 't Hoff) (Thermal) [kcal/mol]
G49E	-1.4	-1.2	1	5.77	78.1	5.5	83.8
G49K	1	0.8	1.13	3.84	68.1	-4.5	73.9
G49A	-0.8	-0.9	1.01	5.44	75.8	3.2	82.4
